Results taken from the DeepSol protein solubility set.

Test: soluble on expression in E. coli; label from the status in PepcDB or PDB records

| Sequence | soluble on expression in E. coli |
| --- | --- |
| MAYHADSADLETKEILTWEGFGIANRELAQQIVDSNYTPDIIVAVARGGLVPAGALSYSMGIKLSDAINVEFYTDVNETLPDPVLLEPLLDTNSIRGKKVLVVDDVADSGRTLDLVLKLLENHGAEVRSAVIYAKSRSIVAPNYIWKRTDEWIVFPWSAEPPVTKA | not soluble |
| MQKESQTYKIAPAERLASVSEYYFSKKLKEVAQMNAEGKDVISLGIGSPDMPPSKVTIETLCNNAHDPNGHGYQPYVGIPELRKGFAAWYQRWYGVELNPNTEIQPLIGSKEGILHVTLAFVNPGEQVLVPNPGYPTYTSLSKILGAEVISYDLKEEDGWMPDFEALEKMDLNRVKLMWTNYPNMPTGANATPELYERLVDFARRKNIVIVNDNPYSFILNEKPISILSVPGAKECCIEFNSMSKSHNMPGWRIGMLASNAEFVQWILKVKSNIDSGMFRAMQLAAATALEAEADWYEGNNHNYRGRRHLAGEIMKTLGCTYDENQVGMFLWGKIPASCKDVEELTEKVLHQARVFITPGFIFGSNGARFIRISLCCKDAKLAEALERIKKLS | not soluble |
| MNKILIIISCILIMLTAFSCRRNVFNPNIPPRTEFIEDPIANLSIPSKDATIKVTPVEASINGYDSKSGQYGKMVYGHFEHYFEFKGHYYLTAAYQYIYGYTNEVIMIGNTTLMNYPNGHILEIDVNDGFKMKEVKANLGRTVPEYTRIAKIANGNAYQDDTYIYVQDSAGANYFKTSDFKSWTDTLSTTPPAGTTKREAVTMNRVQITANNGITYTYVYTGGGLQFSIERLDNRMKQLAQRLETKFTFKEEDFNNHHMFDIGINISTGTTADYRINPVEYIENDTNYIWIGKQSPHQIWLMPVKKDGKDYLIRFVEHCAGGGYYTIKMLETNINTYKKEAETALSKALAAVASDKPQAEIEQACYESIKADANYKANQYFYDVATKMGGLQGFWVGSPAVTEAGFISPNKPLTHYVIEFIDIQQ | not soluble |
| MRFGEGSAKPIVSAATYGVGGNAFAQAIADPVSTVHSNKPELLVVDGYNVIHCTPRYEKLVYDHSDDPYSSDVHDMARTALINDVAAFAQGRYEAVIVFDGAGNISSERPNLPARGVRIEFSPTGVSADTVVQKLCIEAREEGRACSVVSSDGTIQAVVMGKGVTRISSRMLVDEIKQIDNDVHEAEEAPQIKMTLEHHHHHH | soluble |
| DTETTGLPADETQFISGVDAPAPVSVGWQLLDFRFRCIEEVVCRLSTDEPVSPEAAALHGITDASLHGDDPHEVYARLLGAVSKAKVLSAHNLAFHRSVLVYDMRRRGFDPSPLFSLDDYCTMEAGVDFTHLYGSCGTWKLPRLTELFGVLYFGLPGVRTTYREKVRNDIRLVAACLHRMNPTTPSLE | not soluble |
| MGMEYSFGFTKIDEAQKQSMVDGVFHSVAENYDKMNDILSLGLHRMWKNSMVAWLSPPAVFHWKVLDVAGGTGDIAFRILNASRQKAHATVLDINGSMLSVGKKRAEKNGLAPLIDFVEANAEHLPFEDQSFDAYTIAFGIRNVPHIDQALREAFRVLKPGGRFLCLEFSNVEMPLLDKIYDLWSFHAIPKLGQLIANDGDAYRYLVESIRKFPKQDDFAHMINHVGFSRVSYRNLTGAIAALHSAWKILEHHHHHH | not soluble |
| TRAFQEGSYSSNIKNAAKFYTGLIQLQNPEFGDSSSIDDALPQTDTFISASRANSNIDVILPRVESFALAAKGERSKGVMVLGVDPESENAYSHISDKLVQGEFIASGQNAVLVGGGLAQYLRLKIGDELVLYGAGYRGQTAAGLYRVAGILHFPLQQLDSQLVYMPLDTAQTLYSLDKQVTAWVLNTSNLRVLPSVIEQLKRDYGNSVAVKGWQELSPELSQQIALDKAG | not soluble |
| MTLKLIGAGFGRTGTWSTFAALNRLGLPCYHMQEVIMNKANKGHLDFWRKVANSPPGSQHDWNRVFANYTATVDNPGCCVWKELLAAYPDAKVLLTLHPRGAEAWYESTIDTIYFTENVWQFKILEWLTPFGWKFGDMSRKLIWGRTLDGVMNDRAKAVARYNTYVEQVKAAVPPHKLLVYKVTEGWAPLCDFLGLEHHHHHH | soluble |
| MGSDKIHHHHHHMGAARRLPSALFLLGCRTRTRGEHAHMGKIRTGIGGWTFEPWRGTFYPDDLKQKDELKYAASKLTSIEINGTYYSTFKPNSWMKWRDETPDDFVFSVKASRFCTNRRVLSENNDSLEKFLSQGLEELGPKLGPINWQFMATKKFDPADFEGFLKLLPSEQKGVRLRHAMEVRSPTFACQQFYDLCAQYGVAIVYAVDDEAPEWPRIDQPTADFTYARLMCSREDEPTGMTSEELDGVVAQTHKWAERGDVFAYFIAGAKVRNPAAAMALIGKLGG | not soluble |
| MSLRNEVQFELFGDYALFTDPLTKIGGEKLSYSVPTYQALKGIAESIYWKPTIVFVIDELRVMKPIQMESKGVRPIEYGGGNTLAHYTYLKDVHYQVKAHFEFNLHRPDLAFDRNEGKHYSILQRSLKAGGRRDIFLGARECQGYVAPCEFGSGDGFYDGQGKYHLGTMVHGFNYPDETGQHQLDVRLWSAVMENGYIQFPRPEDCPIVRPVKEMEPKIFNPDNVQSAEQLLHDLGGEEGHHHHHH | soluble |
| MGSDKIHHHHHHVLVRRLAQAPVPIAGVAVLGTITPEDQQAAEDARLPLLQLPEGVDLREVEREITRLITDYEAQFERRAARLYDLLTQCSLQGGGISGLLDILHERTGQSVAFYASNGVLRAQRGRGQSRLALQALRPNGRGETTLLNQQIWVEPIGNSGLPIGYVAIAGTLLDPWDRTAAQRGALALALELAKEQAVQAAEERLRGDFIAGILAGAPGDLAAVIQRGQELGYTLHLPHTAMLVHIDDASTATLARAATNIQNELKRLGVNAPISRRESNVLCMLPTTSVTRLRELTEQLRERLRLDHPNVVIAIGTPATHLTEWRRSVEEAEQSLSLGRQIFGNDRVLAFGDLGVYRLLIRLRETPELWSFYRETLSSLAEYDKRQHADLIKTLEAYFNHLGNLRATSEALHVHRNTLLYRLERIKEISGMDLDNAEEHFALWLAVRAHRILATLEE | not soluble |
| SVLVLDDRIVDAATKDLYVNGFQEEIQYQNPTPENLQHMFHQGIEILDSARMINVTHLALWKPSSFKLGNPVDFALDDNYDTFWQSDGGQPHQLDIMFSKRMDICVMAIFFSMIADESYAPSLVKVYAGHSPSDARFYKMLEVRNVNGWVALRFLDNREDDQLLKCQFIRLLFPVNHENGKDTHLRGIRLYVPSNEPHQDTHEWAQTLPETNNVFQDAILR | soluble |
| MSLNGLNSECHFYQTDGDIVVRCAQINDAERLSQYFVDNRSHLIEWEPRREAEFFTESGWLQRLIKLNELHKMKLGYYLLILDAQNDAMLGTISFSNIIRFPFHACNVGYSLAYEAQGKGIMTRALTMACQYMFSEHNMHRIMASYIPHNKRSENVLKRVGFVLEGHAKDYLLINGKWEDHNLTSLINPNWKEEGHHHHHH | soluble |
| MGSDKIHHHHHHMSESKIDNRLWSSKARNLSPYVPGEQPQHDDLCKLNTNENPFPPSPKVGEAITKVLAQQADDLRLYPAPESEELRGALAALYNLDINQVFVGNGSDEVLALVFASFFLKNRPVLAPDISYSFYPVYANTFGIELVQIPLEADFSISPDAYRRPCSGIIIANPNAPTGLLLSLADIRKLAGEHSDSVIVIDEAYIDFAQLEEASAESQMSAISLINEFDNLLVTQTFSKSRSLAGLRVGMAFGNASLIEALTRMKNSFNSYPLDKLAQAGATASVLDVEYFEQTCQQVIDLRTSLTAELTALGYDVLPSHANFVFARPHDGAASQVAEVLREQGIIVRHFDKPRINEYLRITIGTPSQHERLINALKALQAVADVEAS | not soluble |
| MTSPYATIVDAREFNAPMFAEKIDRALRAGEKDAVVNVITSISNAQRQQLREPYKLKYGKDIIQALDKKFSGDLEKAIFALMETPLDYDVKQLKAAMKGLGTDEAVLIEILCSRTVDQLRAIRVTYEKEYGKALEADIAGDTSGEFRDLLVSLVTGSKDGSHDTNDAQAKDDAVRLFADGKAKLAKKDGTHFLHILATQNQYQLRKVFAYFQELAGGSIEKSIEKEFSGDLQKSYLTIVRAASDKQKFFAQQLHASMKGLGTRDNDLIRVIVTRSEVDLELIKAEFQELYSKSLADTVKGDTSGAYRDALLSIINGNHATAH | not soluble |
| MRGSHHHHHHGSLVPRGSMVAADAPAAGTDITNQLTNVTVGIDSGTTVYPHQAGYVKLNYGFSVPNSAVKGDTFKITVPKELNLNGVTSTAKVPPIMAGDQVLANGVIDSDGNVIYTFTDYVNTKDDVKATLTMPAYIDPENVKKTGNVTLATGIGSTTANKTVLVDYEKYGKFYNLSIKGTIDQIDKTNNTYRQTIYVNPSGDNVIAPVLTGNLKPNTDSNALIDQQNTSIKVYKVDNAADLSESYFVNPENFEDVTNSVNITFPNPNQYKVEFNTPDDQITTPYIVVVNGHIDPNSKGDLALRSTLYGYNSNIIWRSMSWDNEVAFNNGSGSGDGIDKPVVPEQPDEPGEIEPIPEK | soluble |
| MYDAALGRWHAVDPMSEKYYSWSPYTYCKNNPVLRIDLDGKDDYVISRSGRLFNETPIDKRGKGSTDNLYLSSDRSISVTVNQGLLGEMHSMQAKEQKENRVKKSYGSTQDLETAATVFKFAADHTTVEWKLDVYDDNGTRTAVVATDRDPYGVDNGVYAQNKLSVKGEKVIDIHSHLPGGTKGGAGNDFNLAKPQRKNAVYMKDNRVSTDKKDMIYEYTKNASRVNSIRVYDATDLLQYIKRK | not soluble |
| SSEELLKQALQQAQQLLQQAQELAKKGGGEELLKQALQQAQQLLQQAQELAKKGGGGEELLKQALQQAQQLLQQAQELAKKGGGEELLKQALQQAQQLLQQAQELAKK | soluble |
| MGSDKIHHHHHHMPGPYNEMDVAISYIHNHLYEPLSLSHIASYVGYSSYHFSRLFKEKTGLSPLYYVSSLRLQKAKELLLNTNLTVRDIGLEIGQQSLGTFTTRFTKCVGMSPSHFRESMNQVNHSLHSLQMLSDWRTSLQSIHPFSTVTGTIDSEAPLEGFILIGLFSKPIPEGLPLYGNLLSSTGAFSFTGVTPGIYYLMATSISWSMQAKDILLPYTTLRGRIKEPIIVTSSPSILEYSLTLHTPRLDDPPILISLPLLMKNFLKARIAT | not soluble |
| MHRALNQDDDHNQDGQDLLEAVLARDNLARAWRRVKSNRGAPGIDGVTTAEWPEHARAHWPATREQIEAGRYRPQPVRRVDIPKPDGGQRQLGIPTVTDRVIQQAIAQVLIPIFDPGFSASSFGFRPGRNAHQAIRQVQAHVKAGYRWAVDLDLARFFDNVNHDLLMSLLSRSIADKRLLALIGRYLRAGVLVGEHPQPSEVGTPQGGPLSPLLANVLLHQFDLELERRGHRFARYADDVIILVKSRRAAERVMQSLTYFLQSTLKLTVNLAKSQVAPMSECSFLGFTLVGKKIRWTEKSLANFKHRVRQLTGRSWGVSMEYRLEKLGQYLRGWFGYYGISQYYRPIPELDEWIRRRVRMCYWKQWRWARTKIRHLLDLGIPLKAAIQHGVSSLSYWRMARTPVTQQAMSNDWLRAQGLLSIKDLWCKAQSYGPDKGLEHHHHHH | not soluble |
| MASETVSNHQEKALALLQADAEKILRLIKVQMDHLTMPQCPLYEEVLDTQMFGLSREVDFAVRLGLIAEEQGKVMLGELERELSALHEAFTNKQQ | not soluble |
| MKAFNYYAPTEIIFGCGRVQEIGSITAQYGKKALLVTVPEFPEVKELYEKVKKSLRENGVEVVHFDGVIPNPTTDVVTEGANMAKAAGVDVVIGLGGGSSIDTAKAIAVEATHPGTAWDYNCHTPGPTSATLPIIAIGTTAGTGSQCTQCAVITKTSEKDKSAIWHKNIFPKVAIVDPEVTVTMPKSVTAQTGFDAFAHNFEAYLSVKTSPLVEMMAIEAIKMIKEYLPKALENPNDIEARSKMSLADTLGGLTNSNAGVTLPHGLGMQVGGHAPHVSHGQALAIIYPQFTRYTYAWAIEKFAKVGRIFNPALNELSDEEAAKEACVAIDDFLKKIGLWIGFKDVNVTKEQIREIADDGQVLGDYLNNPRVATIDEMYELLMNCYERKE | soluble |
